From paper PMC9312987, “NMR Reveals Specific Tracts within the Intrinsically Disordered Regions of the SARS-CoV-2 Nucleocapsid Protein Involved in RNA Encountering” come the findings set out here.

For this data set, the target named is N protein NTR (IDR1-NTD-IDR2) (SARS-CoV-2, UniProt P0DTC9 1-248). The data set can be described thus: EMSA. To be noted: protein: recombinant; tags: none stated; label: 5'-32P for EMSA; unlabeled for NMR; hairpin (stem loop). (In EMSA bound probe runs differently from free probe, usually more slowly.)

Turning to GGGUGUGGCUGUCACUCGGCUGCAUGCUUAGUGCACUCACGCCC (structured_RNA) [5_SL4 (SL4 RNA)], the binding result is reported as “binds”.
